This is an account of results in publication PMC9835228 (Journal of Translational Medicine, 2023).

Values joined by “and” are separate entries in the source; they are usually repeats but may differ in a detail not shown here. Equal values may be shown once. Read-outs that look alike come from different tables or passages of the source. Residues, ends and D or L forms follow the SMILES beside them.

For series [1], the target named is HER2 protein (Homo sapiens, UniProt P04626). The experiment in a line: Surface plasmon resonance of peptides toward HER2 protein. Type of series: binding.
A short description of the next series: in vivo. To be noted: female, NOD SCID, mouse, tumor (SK-BR-3 xenograft), iv, 0.37 MBq, total radioactivity.
For series [2], the target named is HER2 on SK-BR-3 cells (HER2-positive human breast cancer cell line) (human (endogenous in SK-BR-3)) (UniProt P04626).
The target of series [3] is T1, HER2 protein (human, UniProt P04626 23-652).
T1 construct: human epidermal growth factor receptor 2 (HER2), soluble protein used as SPR analyte; also called human epidermal growth factor receptor 2
The experiment in a line: SPR; Plexera PlexArray HT; sulfhydryl peptides printed on a bare gold chip through the cysteine thiol, blocked with 5% nonfat milk; protein flowed over in PBS (HER2 at 70.4, 35.2, 17.6 and 8.8 nM); regeneration 0.5% H3PO4; EGFR, HER3 and HER4 as controls with the same procedure. The note with it: both partners purified. On the technique in general: Surface plasmon resonance follows binding to a sensor surface in real time, without labels.

Method for in vivo: The animals were randomly chosen for in vivo assays when the tumor size reached 100–150 mm^3 (1–2 weeks after inoculation).
Each mouse was injected with 0.37 MBq (~ 0.03 µg) of tracer to evaluate the distribution of the probe in tumors and major organs (4 mice/group). The mice were sacrificed and dissected at 0.5, 1 and 2 h p.i. Blood, tumor, liver, kidney and other major organs were collected and weighed, and their radioactivity was counted in a Wallac 1480 γ-counter (Perkin-Elmer, Waltham, MA). […] All biodistribution data are presented as the percentage of injected dose per gram of tissue (%ID/g).

Take `CC(C)C[C@@H](NC(=O)[C@@H](CCCNC(=N)N)NC(=O)[C@@H](CC(C)C)NC(=O)[C@@H](CCC(=O)O)NC(=O)[C@@H](Cc1c[nH]c2ccccc12)NC(=O)[C@@H](CC(N)=O)NC(=O)[C@@H](CCCNC(=N)N)NC(=O)CCCCCCCNC(=O)CC[C@H](N)C(=O)NCCCCCCCC(=O)N[C@H](CCCNC(=N)N)C(=O)N[C@H](CC(N)=O)C(=O)N[C@H](Cc1c[nH]c2ccccc12)C(=O)N[C@H](CCC(=O)O)C(=O)N[C@H](CC(C)C)C(=O)N[C@H](CCCNC(=N)N)C(=O)N[C@H](CC(C)C)C(=O)N[C@H](CCCCN)C(=O)O)C(=O)N[C@H](CCCCN)C(=O)O` [Ark2]: at HER2 protein [1] (read-out: dissociation constant (KD) to HER2 protein, SPR, Plexera PlexArray HT, Cys-peptides printed on gold chip, HER2 protein 8.8-70.4 nM in PBS, from fitted association/dissociation rates), the Kd came out at 0.01 µM. As for `CC(C)C[C@H](NC(=O)[C@H](CCCNC(=N)N)NC(=O)[C@H](CC(C)C)NC(=O)[C@@H](N)CCCCN)C(=O)N[C@@H](CCC(=O)O)C(=O)N[C@@H](Cc1c[nH]c2ccccc12)C(=O)N[C@@H](CC(N)=O)C(=O)N[C@@H](CCCNC(=N)N)C(=O)O` [H10F] (H-KLRLEWNR-OH), the equilibrium dissociation constant (Kd) at HER2 protein [1] was 0.07 µM and 0.0702 µM.

With `CC(C)C[C@@H](NC(=O)[C@@H](CCCNC(=N)N)NC(=O)[C@@H](CC(C)C)NC(=O)[C@@H](CCC(=O)O)NC(=O)[C@@H](Cc1c[nH]c2ccccc12)NC(=O)[C@@H](CC(N)=O)NC(=O)[C@@H](CCCNC(=N)N)NC(=O)CCOCCOCCOCCOCCNC(=O)c1ccc(NN=Cc2ccccc2S(=O)(=O)O)nc1)C(=O)N[C@H](CCCCN)C(=O)O` [^99mTc-HP-rk, metal not drawn], the tissue uptake at 0.5 h in the series “in vivo” stood at 1.94 ± 0.12 %ID/g. In series [2], “^99mTc-HP-Ark2, ^99mTc-{HYNIC-PEG4-Glu[8-aminooctanoic-D(RNWELRLK)]2/Tricine/TPPTS} (peptide)” came in with a tumor uptake in the SK-BR-3 tumor model at 0.5 h p.i. (biodistribution, n = 4) of 3.99 %ID/g and a tumor uptake in the SK-BR-3 tumor model at 0.5 h p.i. with coinjection of excess cold rk peptide (blocking group, n = 4) of 1.42 %ID/g.

B1: Cys-H10F (sulfhydryl form of the L-peptide H10F, KLRLEWNR) (peptide)
peptide: KLRLEWNR
notes: HER2-targeting L-peptide H10F; also called parental L-peptide; source: synthetic peptide, bought: GL Biochem Ltd
Regarding B1, the Kd with HER2 protein [3] is 0.0702 µM.

As a reminder, the Kd is the concentration at which binding is half-saturated. A word on the tissue uptake: it is the share of the injected amount in each gram of the tissue.
